Data reported in patent publication US20230203178A1 (SICHUAN KELUN BIOTECH BIOPHARMACEUTICAL, published 2023).

T1: human CD19 (antigen) (human, UniProt P15391 20-291, limits assumed)
T1 sequence (looked up): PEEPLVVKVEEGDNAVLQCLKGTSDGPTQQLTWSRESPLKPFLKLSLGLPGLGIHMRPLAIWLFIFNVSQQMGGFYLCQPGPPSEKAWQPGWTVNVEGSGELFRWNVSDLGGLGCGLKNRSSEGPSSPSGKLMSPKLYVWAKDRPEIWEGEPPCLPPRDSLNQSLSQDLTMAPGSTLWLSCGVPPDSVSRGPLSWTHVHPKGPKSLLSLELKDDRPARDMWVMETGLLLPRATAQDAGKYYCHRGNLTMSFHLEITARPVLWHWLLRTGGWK

T2: human BCMA (antigen) (human, UniProt Q02223 1-54, limits assumed)
T2 construct: Antigen coupled to the CM5 chip in SPR; also called B-cell maturation antigen; TNFRF17
T2 sequence (looked up): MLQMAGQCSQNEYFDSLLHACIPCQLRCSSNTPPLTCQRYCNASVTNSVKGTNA

T3: CD19 expressed on Nalm6 cells (UniProt P15391 20-556, limits assumed)
T3 sequence (looked up): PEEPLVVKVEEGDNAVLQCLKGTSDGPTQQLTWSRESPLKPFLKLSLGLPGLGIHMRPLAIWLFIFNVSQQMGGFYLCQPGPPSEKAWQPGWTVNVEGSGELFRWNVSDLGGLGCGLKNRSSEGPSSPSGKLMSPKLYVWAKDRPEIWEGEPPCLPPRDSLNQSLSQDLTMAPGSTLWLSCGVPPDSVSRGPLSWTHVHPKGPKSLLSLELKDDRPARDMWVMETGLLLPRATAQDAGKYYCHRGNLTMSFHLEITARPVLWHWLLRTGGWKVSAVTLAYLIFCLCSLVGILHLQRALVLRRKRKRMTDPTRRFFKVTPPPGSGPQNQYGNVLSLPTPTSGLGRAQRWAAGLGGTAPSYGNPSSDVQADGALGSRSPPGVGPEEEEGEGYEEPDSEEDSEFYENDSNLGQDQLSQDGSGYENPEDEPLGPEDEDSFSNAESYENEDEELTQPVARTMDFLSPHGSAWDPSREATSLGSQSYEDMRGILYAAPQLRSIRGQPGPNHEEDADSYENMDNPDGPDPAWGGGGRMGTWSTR

T4: BCMA expressed on target cells (CHO-K1-BCMA recombinant cell line; MM.1S; RPMI8226) (human, UniProt Q02223 1-184)
T4 sequence (looked up): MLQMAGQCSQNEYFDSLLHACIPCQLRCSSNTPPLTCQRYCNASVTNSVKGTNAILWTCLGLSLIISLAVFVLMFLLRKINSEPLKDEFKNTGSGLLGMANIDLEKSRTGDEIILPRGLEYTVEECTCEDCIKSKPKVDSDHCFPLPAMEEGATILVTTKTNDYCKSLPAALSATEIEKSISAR


Columns and labels:
human CD19 (antigen) = target: T1, human CD19 (antigen); assay: flow cytometry of lentivirus-transduced T cells labelled with antigen or anti-CD19 antibody, 48 h after transduction; percent positive cells
From the text: (§1) The nucleic acid sequence encoding the CAR was expressed under the drive of a promoter, therefore the lentivirus-transfected T cells could be labeled with an antigen or anti-CD19 antibody and measured by flow cytometry, to reflect the expression level of the CAR on the surface of the T cells.

human BCMA (antigen) = target: T2, human BCMA (antigen); assay: flow cytometry of lentivirus-transduced T cells labelled with antigen, 48 h after transduction; percent positive cells
From the text: as §1

[1] = target: T3, CD19 expressed on Nalm6 cells; assay: cell-based or functional assay
[2] = target: T4, BCMA expressed on target cells …; assay: cell-based or functional assay

Binder	Positive rate of binding to CD19 (human CD19 (antigen))	Positive rate of binding to BCMA (human BCMA (antigen))	lysis rate of Nalm6-luc cells by CAR-T cells, ratio 0.25:1 [1]	lysis rate of Nalm6-luc cells by CAR-T cells, ratio 0.5:1 [1]	lysis rate of Nalm6-luc cells by CAR-T cells, ratio 1:1 [1]	lysis rate of Nalm6-luc cells by CAR-T cells, ratio 2:1 [1]	lysis rate of CHO-K1-BCMA-luc cells by CAR-T cells, ratio 0.25:1 [2]	lysis rate of CHO-K1-BCMA-luc cells by CAR-T cells, ratio 0.5:1 [2]	lysis rate of CHO-K1-BCMA-luc cells by CAR-T cells, ratio 1:1 [2]	lysis rate of CHO-K1-BCMA-luc cells by CAR-T cells, ratio 2:1 [2]
TanCAR 01 (other, Tandem bispecific chimeric antigen receptor on human T cells; built here from its parts without the signal peptide; also called TanCAR 01 CAR-T) DIVMTQSPLSLPVTPGEPASISCRSSQSLVHSNGNTFLHWYLQKPGQSPQLLIYKVSNRFSGVPDRFSGSGSGTDFTLKISRVEAEDVGVYYCMQSTHVLTFGGGTKLEIKRAGGGGSGGGGSGGGGSQVQLVQSGAEVKKPGASVKVSCKASGYTFTDYLMHWVRQAPGQGLEWMGWINTETGEPTYADDFKGRVTMTRDTSTSTVYMELSSLRSEDTAVYYCAPSLYYGYSWFTYWGQGTLVTVSGGGGSGGGGSGGGGSGGGGSQVTLRESGPALVKPTQTLTLTCTFSGVSLPDYGVSWIRQPPGKALEWLAVIWGSETTYYNSALKSRLTISKDTSKNQVVLTMTNMDPVDTATYYCAKHYYYGGSYAMDYWGQGTTVTVSSGGGGSGGGGSGGGGSEIVLTQSPATLSLSPGERATLSCRASQDISKYLNWYQQKPGQAPRLLIYHTSRLHSGIPDRFSGSGSGTDFTLTISRLEPEDIAVYYCQQGNTLPYTFGQGTKLEITTTPAPRPPTPAPTIASQPLSLRPEACRPAAGGAVHTRGLDFACDIYIWAPLAGTCGVLLLSLVITLYCKRGRKKLLYIFKQPFMRPVQTTQEEDGCSCRFPEEEEGGCELRVKFSRSADAPAYKQGQNQLYNELNLGRREEYDVLDKRRGRDPEMGGKPRRKNPQEGLYNELQKDKMAEAYSEIGMKGERRRGKGHDGLYQGLSTATKDTYDALHMQALPPR	10.6%	11.3%	46.1%	40%	56.8%	80.6%	31.3%	34.3%	63.2%	71%
H-BCMA CAR (other, Chimeric antigen receptor on human T cells; built here from its parts without the signal peptide; also called H-BCMA CAR-T; BCMA CAR-T) DIVMTQSPLSLPVTPGEPASISCRSSQSLVHSNGNTFLHWYLQKPGQSPQLLIYKVSNRFSGVPDRFSGSGSGTDFTLKISRVEAEDVGVYYCMQSTHVLTFGGGTKLEIKRAGGGGSGGGGSGGGGSQVQLVQSGAEVKKPGASVKVSCKASGYTFTDYLMHWVRQAPGQGLEWMGWINTETGEPTYADDFKGRVTMTRDTSTSTVYMELSSLRSEDTAVYYCAPSLYYGYSWFTYWGQGTLVTVSTTTPAPRPPTPAPTIASQPLSLRPEACRPAAGGAVHTRGLDFACDIYIWAPLAGTCGVLLLSLVITLYCKRGRKKLLYIFKQPFMRPVQTTQEEDGCSCRFPEEEEGGCELRVKFSRSADAPAYKQGQNQLYNELNLGRREEYDVLDKRRGRDPEMGGKPRRKNPQEGLYNELQKDKMAEAYSEIGMKGERRRGKGHDGLYQGLSTATKDTYDALHMQALPPR	0.31%	26.9%					0%	27%	40.7%	77.9%
TanCAR 04 (other, Tandem bispecific chimeric antigen receptor on human T cells; built here from its parts without the signal peptide; also called TanCAR 04 CAR-T) QVTLRESGPALVKPTQTLTLTCTFSGVSLPDYGVSWIRQPPGKALEWLAVIWGSETTYYNSALKSRLTISKDTSKNQVVLTMTNMDPVDTATYYCAKHYYYGGSYAMDYWGQGTTVTVSSGGGGSGGGGSGGGGSEIVLTQSPATLSLSPGERATLSCRASQDISKYLNWYQQKPGQAPRLLIYHTSRLHSGIPDRFSGSGSGTDFTLTISRLEPEDIAVYYCQQGNTLPYTFGQGTKLEIEAAAKEAAAKEAAAKDIVMTQSPLSLPVTPGEPASISCRSSQSLVHSNGNTFLHWYLQKPGQSPQLLIYKVSNRFSGVPDRFSGSGSGTDFTLKISRVEAEDVGVYYCMQSTHVLTFGGGTKLEIKRAGGGGSGGGGSGGGGSQVQLVQSGAEVKKPGASVKVSCKASGYTFTDYLMHWVRQAPGQGLEWMGWINTETGEPTYADDFKGRVTMTRDTSTSTVYMELSSLRSEDTAVYYCAPSLYYGYSWFTYWGQGTLVTVSTTTPAPRPPTPAPTIASQPLSLRPEACRPAAGGAVHTRGLDFACDIYIWAPLAGTCGVLLLSLVITLYCKRGRKKLLYIFKQPFMRPVQTTQEEDGCSCRFPEEEEGGCELRVKFSRSADAPAYKQGQNQLYNELNLGRREEYDVLDKRRGRDPEMGGKPRRKNPQEGLYNELQKDKMAEAYSEIGMKGERRRGKGHDGLYQGLSTATKDTYDALHMQALPPR	16.1%	15.9%	72.7%	55.8%	68.9%	84.1%	36.4%	52.6%	68.9%	84.1%
TanCAR 03 (other, Tandem bispecific chimeric antigen receptor on human T cells; built here from its parts without the signal peptide; also called TanCAR 03 CAR-T) QVTLRESGPALVKPTQTLTLTCTFSGVSLPDYGVSWIRQPPGKALEWLAVIWGSETTYYNSALKSRLTISKDTSKNQVVLTMTNMDPVDTATYYCAKHYYYGGSYAMDYWGQGTTVTVSSGGGGSGGGGSGGGGSEIVLTQSPATLSLSPGERATLSCRASQDISKYLNWYQQKPGQAPRLLIYHTSRLHSGIPDRFSGSGSGTDFTLTISRLEPEDIAVYYCQQGNTLPYTFGQGTKLEIGGGGSGGGGSGGGGSGGGGSDIVMTQSPLSLPVTPGEPASISCRSSQSLVHSNGNTFLHWYLQKPGQSPQLLIYKVSNRFSGVPDRFSGSGSGTDFTLKISRVEAEDVGVYYCMQSTHVLTFGGGTKLEIKRAGGGGSGGGGSGGGGSQVQLVQSGAEVKKPGASVKVSCKASGYTFTDYLMHWVRQAPGQGLEWMGWINTETGEPTYADDFKGRVTMTRDTSTSTVYMELSSLRSEDTAVYYCAPSLYYGYSWFTYWGQGTLVTVSTTTPAPRPPTPAPTIASQPLSLRPEACRPAAGGAVHTRGLDFACDIYIWAPLAGTCGVLLLSLVITLYCKRGRKKLLYIFKQPFMRPVQTTQEEDGCSCRFPEEEEGGCELRVKFSRSADAPAYKQGQNQLYNELNLGRREEYDVLDKRRGRDPEMGGKPRRKNPQEGLYNELQKDKMAEAYSEIGMKGERRRGKGHDGLYQGLSTATKDTYDALHMQALPPR	8.99%	6.07%	54.3%	57.7%	72.1%	89.1%	17.8%	27.6%	40.5%	52.1%
H-CD19 CAR (other, Chimeric antigen receptor on human T cells; built here from its parts without the signal peptide; also called H-CD19 CAR-T; hCD19 CAR-T) QVTLRESGPALVKPTQTLTLTCTFSGVSLPDYGVSWIRQPPGKALEWLAVIWGSETTYYNSALKSRLTISKDTSKNQVVLTMTNMDPVDTATYYCAKHYYYGGSYAMDYWGQGTTVTVSSGGGGSGGGGSGGGGSEIVLTQSPATLSLSPGERATLSCRASQDISKYLNWYQQKPGQAPRLLIYHTSRLHSGIPDRFSGSGSGTDFTLTISRLEPEDIAVYYCQQGNTLPYTFGQGTKLEITTTPAPRPPTPAPTIASQPLSLRPEACRPAAGGAVHTRGLDFACDIYIWAPLAGTCGVLLLSLVITLYCKRGRKKLLYIFKQPFMRPVQTTQEEDGCSCRFPEEEEGGCELRVKFSRSADAPAYKQGQNQLYNELNLGRREEYDVLDKRRGRDPEMGGKPRRKNPQEGLYNELQKDKMAEAYSEIGMKGERRRGKGHDGLYQGLSTATKDTYDALHMQALPPR	14.7%	0.98%	48%	55%	72.8%	86.4%				
